Residue numbers refer to the chain shown, from its start.

First the molecules themselves.
B1: VHH clone 8GO9 (VHH)
VHH: QVQLVESGGGLVQAGGSLRLSCAASGRTFSRYGMSWFRQAPGKEREFVATISRGGSSTNYADSTKGRFTVSRDNAKNTVVLQMNSLKPEDTAVYYCAADTNWPVGAYEYWGQGTQVTVSS
B2: VHH clone 8G11 (VHH)
VHH: EVQLVESGGGLVQAGGSLRLSCAASGRTFDIYTMGWFRQVPGKEREFVADIGRAGGTTHYADSVKGRFAISRDNANDAVHLQMNSLKPEDTAVYYCATKVVPRAGRRLLDYDYWGQGTQVTVSS
B3: VHH clone 8B03 (VHH)
VHH: EVQLVESGGGLVQPGGSLRLSCRASGAIFSINHMGWYRQAPGKQRELVATITSGGSTNYADSVKGRFTISRDNAKNTVYLQMNSLKPEDTAVYSCNLDWTTGWGSRRDYWGQGTQVTVSS
B4: VHH clone 8G1 (VHH)
VHH: B3 VHH with E1Q
B5: VHH clone 8G12 (VHH)
VHH: EVQLVESGGGLVRAGGSLRLSCAASGSIFGTTNMGWYRQAPGTQRDLVATINNGGITNYADSVKGRFTISTDYTKNTVYLQMDRLKPEDTAVYYCNAEYHFRPPSWGQGTQVTVSS

The first assay has as its target mutC4/Cmut4. Description: ELISA, VHH on coated antibody. (An ELISA detects its analyte on a solid surface through an enzyme-linked reagent.)
In turn, B1 gave an ELISA OD of 0.068 OD.
Take B2: the ELISA OD came out at 0.054 OD.
With B3, the ELISA OD worked out at 0.068 OD.
B4 showed an ELISA OD of 0.068 OD.
On to B5, for which the ELISA OD worked out at 0.2 OD.

In another assay the target is Fwt. Description: ELISA, VHH on coated antibody.
B1 gave an ELISA OD of 0.114 OD.
Molecule B2 registered an ELISA OD of 0.073 OD.
For the molecule B3, the ELISA OD stood at 0.069 OD.
As for B4, the ELISA OD is 0.079 OD.
The molecule B5 returned an ELISA OD of 0.063 OD.

The next assay addresses mutF4/Fmut4. In words: ELISA, VHH on coated antibody.
For B1, the ELISA OD turned out to be 0.153 OD.
As to B2, the ELISA OD was 0.123 OD.
Regarding B3, the ELISA OD turned out to be 0.221 OD.
As to B4, the ELISA OD stood at 0.128 OD.
On the same count and under the same terms, as for B5, the figure is 0.159 OD.

Values taken from patent US20200157248A1.
